Measured values as given in patent publication US20240270821A1, “GIP/GLP1/GCG TRI-RECEPTOR AGONISTS AND USES THEREOF” (priority 2023, published 2024).
Substitutions are numbered along the chain they refer to. Starred links: 1 amine or outer side, 2 acyl side, 3 side chain; linkers in the order of their positions; H or OH if unused. Non-standard residues stand in square brackets, D forms with d. Groups on a side chain read outwards from the residue. No end group written: not given here. *: point of attachment. C20 diacid = O=C(O)CCCCCCCCCCCCCCCCCCC(=O)*; Phe(4-CN) = N#Cc1ccc(C[C@H](N)C(=O)O)cc1; αMePhe(2-F) = C[C@](N)(Cc1ccccc1F)C(=O)O; γGlu = O=C(O)[C@H](CCC(=O)[*:2])N[*:1]; AEEA = NCCOCCOCC(=O)O; Aib = CC(C)(N)C(=O)O

B1: Example 383 (peptide)
chain: YXQGTXTSDYSIXLDKKAAXAFIEYLIETGPSSGAPPPSEG
modifications: synthetic construct; SITE 2: note = 2-Aminoisobutyric Acid; SITE 6: note = alpha-methyl-2-fluoro-L-phenylalanine; SITE 13: note = alpha-methyl-leucine; SITE 17: note = Lysine is chemically modified through conjugation of the epsilon-amino group of the Lysine side chain with (2-[2-(2-Amino-ethoxy)-et)
B2: Example 386 (peptide)
chain: YXQGTXTSDYSILLDKKAQXAFIEYLLEGGPSSGAPPPE
modifications: not fully specified; synthetic construct; SITE 2: note = 2-Aminoisobutyric Acid; SITE 6: note = alpha-methyl-2-fluoro-L-phenylalanine; SITE 17: note = Lysine is chemically modified through conjugation of the epsilon-amino group of the Lysine side chain with (2-[2-(2-Amino-ethoxy)-ethoxy]-acetyl)2-(gamma-Glu)-CO-(CH2 )18
B3: Example 388 (peptide)
chain: B2 chain with L27E
modifications: not fully specified; synthetic construct; SITE 2: note = 2-Aminoisobutyric Acid; SITE 6: note = alpha-methyl-2-fluoro-L-phenylalanine; SITE 17: note = Lysine is chemically modified through conjugation of the epsilon-amino group of the Lysine side chain with (2-[2-(2-Amino-ethoxy)-ethoxy]-acetyl)-(gamma-Glu)-CO-(CH2) 16-
B4: Example 382 (peptide)
chain: YXQGTFTSDYXIXLDKKAQXAFIEYLIEGGPSSGAPPPS
modifications: synthetic construct; SITE 2: note = 2-Aminoisobutyric Acid; SITE 11: note = alpha-methyl-L-serine; SITE 13: note = alpha-methyl-leucine; SITE 17: note = Lysine is chemically modified through conjugation of the epsilon-amino group of the Lysine side chain with (2-[2-(2-Amino-ethoxy)-ethoxy]-acetyl)2-
B5: Example 385 (peptide)
chain: B2 chain with E39S
modifications: not fully specified; synthetic construct; SITE 2: note = 2-Aminoisobutyric Acid; SITE 6: note = alpha-methyl-2-fluoro-L-phenylalanine; SITE 17: note = Lysine is chemically modified through conjugation of the epsilon-amino group of the Lysine side chain with (2-[2-(2-Amino-ethoxy)-ethoxy]-acetyl)2-(gamma-Glu)-CO-(CH2 )18
B6: Example 387 (peptide)
chain: B2 chain with L27E, E39S
modifications: not fully specified; synthetic construct; SITE 2: note = 2-Aminoisobutyric Acid; SITE 6: note = alpha-methyl-2-fluoro-L-phenylalanine; SITE 17: note = Lysine is chemically modified through conjugation of the epsilon-amino group of the Lysine side chain with (2-[2-(2-Amino-ethoxy)-ethoxy]-acetyl)-(gamma-Glu)-CO-(CH2) 16-
B7: Example 34 (peptide)
chain: YXQGTFTSDFSKXLDKKAQXAFIEYLLEAGPSSGAPPPGEG
modifications: not fully specified; Aib, αMeL; acylated Lys; C-terminal amide; synthetic construct; SITE 2: note = 2-Aminoisobutyric Acid; SITE 13: note = alpha-methyl-leucine; SITE 17: note = Lysine is chemically modified through conjugation of the epsilon-amino group of the Lysine side chain with (2-[2-(2-Amino-ethoxy)-ethoxy]-acetyl)-(gamma-Glu)-CO-(CH2) 18-CO2H; SITE 20: n
B8: Example 368 (peptide)
chain: YXQGTXTSDYXIXLDXKAQXXFIEXLLEGGPSSGEPPPS
modifications: synthetic construct; SITE 2: note = 2-Aminoisobutyric Acid; SITE 6: note = alpha-methyl-2-fluoro-L-phenylalanine; SITE 11: note = alpha-methyl-L-serine; SITE 13: note = alpha-methyl-leucine; SITE 16: note = L-ornithine; SITE 17: note = Lysine is chemically modified through conjugation of the epsilon
B9: Example 380 (peptide)
chain: B8 chain with Y10X, G34X, S39E
modifications: synthetic construct; SITE 2: note = 2-Aminoisobutyric Acid; SITE 6: note = alpha-methyl-2-fluoro-L-phenylalanine; SITE 10: note = 3-(4-Pyridyl)-L-alanine; SITE 11: note = alpha-methyl-L-serine; SITE 13: note = alpha-methyl-leucine; SITE 16: note = L-ornithine; SITE 17: note = Lysine is chemically mo
B10: Example 373 (peptide)
chain: B8 chain with Y10X, X11S, G34X, S39E
modifications: synthetic construct; SITE 2: note = 2-Aminoisobutyric Acid; SITE 6: note = alpha-methyl-2-fluoro-L-phenylalanine; SITE 10: note = 3-(4-Pyridyl)-L-alanine; SITE 13: note = alpha-methyl-leucine; SITE 16: note = L-ornithine; SITE 17: note = Lysine is chemically modified through conjugation of the epsil
B11: Example 381 (peptide)
chain: B8 chain with Y1H, X21A, X25Y, S39E
modifications: synthetic construct; SITE 2: note = 2-Aminoisobutyric Acid; SITE 6: note = alpha-methyl-2-fluoro-L-phenylalanine; SITE 11: note = alpha-methyl-L-serine; SITE 13: note = alpha-methyl-leucine; SITE 16: note = L-ornithine; SITE 17: note = Lysine is chemically modified through conjugation of the epsilon
B12: Example 384 (peptide)
chain: B8 chain with X25Y, E35A
modifications: synthetic construct; SITE 2: note = 2-Aminoisobutyric Acid; SITE 6: note = alpha-methyl-2-fluoro-L-phenylalanine; SITE 11: note = alpha-methyl-L-serine; SITE 13: note = alpha-methyl-leucine; SITE 16: note = L-ornithine; SITE 17: note = Lysine is chemically modified through conjugation of the epsilon
B13: Example 375 (peptide)
chain: B8 chain with Y10X, L27I
modifications: synthetic construct; SITE 2: note = 2-Aminoisobutyric Acid; SITE 6: note = alpha-methyl-2-fluoro-L-phenylalanine; SITE 10: note = 3-(4-Pyridyl)-L-alanine; SITE 11: note = alpha-methyl-L-serine; SITE 13: note = alpha-methyl-leucine; SITE 16: note = L-ornithine; SITE 17: note = Lysine is chemically mo
B14: Example 377 (peptide)
chain: B8 chain with Y10X, S39E
modifications: synthetic construct; SITE 2: note = 2-Aminoisobutyric Acid; SITE 6: note = alpha-methyl-2-fluoro-L-phenylalanine; SITE 10: note = 3-(4-Pyridyl)-L-alanine; SITE 11: note = alpha-methyl-L-serine; SITE 13: note = alpha-methyl-leucine; SITE 16: note = L-ornithine; SITE 17: note = Lysine is chemically mo
B15: Example 378 (peptide)
chain: B8 chain with Y10X, L27I, S39E
modifications: synthetic construct; SITE 2: note = 2-Aminoisobutyric Acid; SITE 6: note = alpha-methyl-2-fluoro-L-phenylalanine; SITE 10: note = 3-(4-Pyridyl)-L-alanine; SITE 11: note = alpha-methyl-L-serine; SITE 13: note = alpha-methyl-leucine; SITE 16: note = L-ornithine; SITE 17: note = Lysine is chemically mo

Target: hGLP-1R (Homo sapiens, UniProt P43220)
Assay: cell-based or functional assay

Sequence of hGLP-1R (P43220 24-463): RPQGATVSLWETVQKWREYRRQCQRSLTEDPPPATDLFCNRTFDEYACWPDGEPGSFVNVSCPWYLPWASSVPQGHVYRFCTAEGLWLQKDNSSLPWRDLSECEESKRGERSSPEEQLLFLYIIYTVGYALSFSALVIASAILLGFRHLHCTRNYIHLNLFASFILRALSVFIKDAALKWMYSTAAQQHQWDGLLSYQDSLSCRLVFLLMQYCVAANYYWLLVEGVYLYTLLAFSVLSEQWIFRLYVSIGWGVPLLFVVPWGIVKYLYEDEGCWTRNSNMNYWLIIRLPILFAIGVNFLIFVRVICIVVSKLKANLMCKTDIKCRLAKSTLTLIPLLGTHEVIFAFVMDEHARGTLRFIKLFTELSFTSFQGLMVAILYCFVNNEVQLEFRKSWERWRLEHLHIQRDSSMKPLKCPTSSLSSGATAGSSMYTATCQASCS

| Binder | Relative cAMP EC50 [nM] | cAMP Rel EC50, nM (1% HSA) [nM] | cAMP Rel EC50 (in the presence of 1% HSA) [nM] |
| --- | --- | --- | --- |
| Y[Aib]QGT[αMePhe(2-F)]TSD[Phe(4-CN)]SKLLDKIAQK([AEEA-γGlu-C20 diacid])AFIEYLIEGGPSSGEPPPSGS-NH2 [Example 364] | 1.1 | 260 | – |
| B1 | 0.258 | 79.1 | – |
| B2 | 0.278 | 98.6 | – |
| B3 | 0.373 | 52.5 | – |
| B4 | 0.291 | 61.5 | – |
| B5 | 0.235 | 86.1 | – |
| B6 | 0.255 | 26.5 | – |
| B7 | 1.16 | – | 242 |
| B8 | 0.242 | 37.4 | – |
| B9 | 0.354 | 30.6 | – |
| B10 | 0.392 | 54.5 | – |
| B11 | 0.157 | 24.5 | – |
| B12 | 0.133 | 19.3 | – |
| B13 | 0.299 | 18 | – |
| B14 | 0.367 | 29.4 | – |
| B15 | 0.251 | 18.8 | – |
| Y[Aib]QGT[αMePhe(2-F)]TSD[Phe(4-CN)]SKLLDKIAQK([AEEA-γGlu-C20 diacid])AFIEYLIEGGPSSGAPPPSGS-NH2 [Example 363] | 1.47 | 217 | – |

Target: T1, human GIP receptor (human) (UniProt P48546)
T1 sequence (looked up): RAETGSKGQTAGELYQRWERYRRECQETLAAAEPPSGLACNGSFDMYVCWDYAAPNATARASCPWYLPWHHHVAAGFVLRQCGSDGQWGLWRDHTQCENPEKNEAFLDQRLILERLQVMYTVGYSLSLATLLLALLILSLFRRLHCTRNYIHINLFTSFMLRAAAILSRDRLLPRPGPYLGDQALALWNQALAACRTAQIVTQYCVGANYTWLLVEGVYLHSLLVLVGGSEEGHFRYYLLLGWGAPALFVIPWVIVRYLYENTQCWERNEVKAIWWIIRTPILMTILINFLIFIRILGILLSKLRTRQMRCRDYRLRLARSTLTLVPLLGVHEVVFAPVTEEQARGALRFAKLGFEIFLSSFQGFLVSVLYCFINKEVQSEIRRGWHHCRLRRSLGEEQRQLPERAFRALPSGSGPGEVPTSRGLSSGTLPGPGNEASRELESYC
Assay: cell-based or functional assay

| Binder | Relative cAMP EC50 [nM] | cAMP Rel EC50, nM (1% HSA) [nM] | cAMP Rel EC50 (in the presence of 1% HSA) [nM] |
| --- | --- | --- | --- |
| Y[Aib]QGT[αMePhe(2-F)]TSD[Phe(4-CN)]SKLLDKIAQK([AEEA-γGlu-C20 diacid])AFIEYLIEGGPSSGEPPPSGS-NH2 [Example 364] | 0.457 | 101 | – |
| B1 | 0.0406 | 32.3 | – |
| B2 | 0.0156 | 5.62 | – |
| B3 | 0.0462 | 14.1 | – |
| B4 | 0.0368 | 17.7 | – |
| B5 | 0.0141 | 4.03 | – |
| B6 | 0.0276 | 5.64 | – |
| B7 | 0.122 | – | 44.2 |
| B8 | 0.0121 | 2.62 | – |
| B9 | 0.0346 | 7.77 | – |
| B10 | 0.0183 | 1.97 | – |
| B11 | 0.0156 | 7.01 | – |
| B12 | 0.0152 | 3.63 | – |
| B13 | 0.0165 | 1.78 | – |
| B14 | 0.0377 | 11.1 | – |
| B15 | 0.0213 | 2.15 | – |
| Y[Aib]QGT[αMePhe(2-F)]TSD[Phe(4-CN)]SKLLDKIAQK([AEEA-γGlu-C20 diacid])AFIEYLIEGGPSSGAPPPSGS-NH2 [Example 363] | 0.375 | 91.8 | – |

Target: human glucagon receptor (human) (UniProt P47871)
Assay: cell-based or functional assay

Sequence of human glucagon receptor (human) (P47871 26-477): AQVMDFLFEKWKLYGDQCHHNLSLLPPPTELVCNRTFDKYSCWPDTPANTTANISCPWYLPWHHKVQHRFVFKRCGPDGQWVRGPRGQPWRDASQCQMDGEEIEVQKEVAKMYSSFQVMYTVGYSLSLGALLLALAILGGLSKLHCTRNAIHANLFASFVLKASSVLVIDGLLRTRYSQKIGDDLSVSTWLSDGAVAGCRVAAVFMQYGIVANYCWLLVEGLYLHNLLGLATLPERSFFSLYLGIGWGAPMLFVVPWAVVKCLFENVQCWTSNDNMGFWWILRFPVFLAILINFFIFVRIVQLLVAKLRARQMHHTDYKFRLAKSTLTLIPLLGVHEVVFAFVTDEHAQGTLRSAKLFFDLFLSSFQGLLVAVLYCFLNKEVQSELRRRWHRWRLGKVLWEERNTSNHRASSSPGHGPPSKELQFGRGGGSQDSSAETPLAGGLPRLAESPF

| Binder | Relative cAMP EC50 [nM] | cAMP Rel EC50, nM (1% HSA) [nM] | cAMP Rel EC50 (in the presence of 1% HSA) [nM] |
| --- | --- | --- | --- |
| Y[Aib]QGT[αMePhe(2-F)]TSD[Phe(4-CN)]SKLLDKIAQK([AEEA-γGlu-C20 diacid])AFIEYLIEGGPSSGEPPPSGS-NH2 [Example 364] | 10.2 | 3190 | – |
| B1 | 1.27 | 530 | – |
| B2 | 1.7 | 734 | – |
| B3 | 2.15 | 603 | – |
| B4 | 3.72 | 1050 | – |
| B5 | 1 | 700 | – |
| B6 | 2.14 | 184 | – |
| B7 | 3.47 | – | 855 |
| B8 | 0.481 | 111 | – |
| B9 | 1.17 | 150 | – |
| B10 | 4.48 | 666 | – |
| B11 | 1.39 | 176 | – |
| B12 | 5.77 | 1730 | – |
| B13 | 1.32 | 137 | – |
| B14 | 1.36 | 163 | – |
| B15 | 1.45 | 176 | – |
| Y[Aib]QGT[αMePhe(2-F)]TSD[Phe(4-CN)]SKLLDKIAQK([AEEA-γGlu-C20 diacid])AFIEYLIEGGPSSGAPPPSGS-NH2 [Example 363] | 13.6 | 4080 | – |
